For 21 sequences, protein production results are on record in a protein production outcome set (Wang et al. 2014).
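Note: failed if final PepcDB status was selected cloned or expressed and not failed if soluble or beyond.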

This data set can be described thus: label from the status in PepcDB records.
With “MENNGEMNAQPELSGIIDITKTYMYEKLWNICAGPLCVLPKPGEKVYYFPQGHIELIENSTRDELDHIRPIFDLPSKLRCRVVAIDRKVDKNTDEVYAQISLMPDTTDMSQPISTQNLVAKDLYGQEWSFKHVFRGTPQRHMFTSGGGWSVFATTKRLIVGDIFVLLRGENGELRFGIRRAKHQQGHIPSSVISANCMQHGVIASVVNAFKTKCMFNVVYKPSYDKFVDAMNNNYIVGSRFRMQFEGKDFSEKRYDGTIIGVNDMSPHWKDSEWRSLKVQWDELSPFLRPNQVSPWDIEHLIPSSDISQSSATLSNLWTCQEIGQRSMNSPISVPEFSYPNAIEDSKFLSGLLLNHSLLAIPNENYNSDQMIQPRKEDITTEATTSCLLFGVDLTKVHMQGVAISRAVDLTAMHGYNQLIQKLEELFDLKDELRTRNQWEIVFTNNEGAEMLVGDDPWPEFCNMAKRIFICSKEEIKKMKLKNKFFQPESKALTSSDVPPNVTDN”, the protein production entry was “failed”.
For the sequence “MLSKVIAQANIDHAEKWFERADKIVIVTHVSPDGDAIGSSLGLWHFLESQEKTVNVIVPNAFPDFLRWMPGAKDIIRYDKYTEFANKLLNEADVICCLDFNALSRIDAMADAVAQSPARKMMIDHHLNPEAFCRIIISHPEISSTSELVFRLICRLGYFEDITKEGAECIYTGMMTDTGGFTYNSNDREIYFIISELLSKGIDKDEIYRKVYNTYSEGRLRLMGYVLYDKMQVFPQFNSALVWLTKEEQSKFQYVKGDTEGFVNIPLSIKNIIFSVFLREDTEKNMIKVSLRSVGAFPCNKVAAEFFNGGGHLNASGGEFYGTMDEAIDLFKQALVKYEELLLAKK”, the protein production entry is given as “failed”.
The value for “MITIEISINLELIISFYLLFILGANNVANAIGTAYASRATTYRNLLILFSISVIIGSLFAKNVGSTVNSLSSDALTALIISALVMTLSTYKKVPISLHTVIICSLIGLNFNSSNLYVFGEILLSWILSPIIAVVIAYILYSAYEKIDISILKKITMIRYFLLISAAVVAFNLGSNDLPTVLGTFTTSQIIYIIGAIFLCLGAYLYGNRVSETLSMITNLSVSSAFIAQLSGGLAVTIFTALGMPVSTTQAIVGGILGVGLTKGIKTVRWKVLKNIIFWWVVAPIIALIIGFIINRMI” was “failed”; that for “MTLPRRSGIRALPARGPTMESILGSFLLVAASEMGDKTQLLAFSLATRFRKPWPIMAGILVATLANHGLASSLGAWISANVPARMLAGVLALTFLMFGLWTLRPDSLEASKGPERFGAFLTTTVLFFLAEMGDKTQLATVALAARYGDVIRVTAGTTLGMLAADGLAVFLGEKLAARVSSARIRWAAAGLFFLFGLISAWAAIFG” was “failed”.
For the sequence “MDVEAWLDERVPLVETHHHHHHENLYFQSHMNHGANIFGVAFNTLLGKDEPQVFATAGSNRVTVYECPRQGGMQLLHCYADPDPDEVFYTCAWSYDLKTSSPLLAAAGYRGVIRVIDVEQNEAVGNYIGHGQAINELKFHPHKLQLLLSGSKDHAIRLWNIQSHVCIAILGGVEGHRDEVLSIDFNMRGDRIVSSGMDHSLKLWCLNTPEFHHKIELSNTFSQEKSTLPFPTVTKHFPDFSTRDIHRNYVDCVQWFGNFVLSKSCENAIVCWKPGQLHQSFEQVKPSDSSCTIIAEFEYDECEIWFVRFGFNPWQKVIALGNQQGKVYVWELDPSDPEGAHMTTLHNSRSVATVRQIAFSRDASVLVYVCDDATVWRWNRRQTTSI”, the protein production result is listed as “failed”.
For “KWIFREPSRTDGDDVYALITECPPLDINSSYCNFLQATHFSKTCVLAEKDGDLAGFISGYQEPDEPNTLFIWQVAVSPRYRGKGLAFSMLTTLLERKNLLHIEFIETTITKANNASWSLFKKIDAQYGNQGQVTTFLDKESHFKGKHDTEYLYRIPL” the value was “failed”.
The value for “MVRLFGPLVGLFFAVALLWSFGNGAYVAITEPAAPTAESVFHKHPKELDLASNGAFGRFDKQQLQRGFQVYKEVCATCHSLKQIAFRDLAALGYSEAEVKAIAKGWPTKAATFNPVTGDRGERDNIPSDRIPAVYYAGQGVPPDLSLMTKARHDGGAYVYSLLTGYAEQPAELLKQFPDAKTPDGLHYNPYFANLNLAMPAPLTTDGQVTYSDGTKASVDQMAKDVSAFLVWTAEPKLDKRKQTGWAVLGFLLVATVLAYLAKKNVWADKH” was “failed”; that for “MAENHCELLPPAPSGLGAGLGGGLCRRCSAGMGALAQRPGGVSKWVRLNVGGTYFLTTRQTLCRDPKSFLYRLCQADPDLDSDKDETGAYLIDRDPTYFGPVLNYLRHGKLVINKDLAEEGVLEEAEFYNITSLIKLVKDKIRERDSRISQMPVKHVYRVLQCQEEELTQMVSTMSDGWKFEQLVSIGSSYNYGNEDQAEFLCVVSKELHNTPYGTTSEPSEKAKILQERGSRM” was “not failed”; that for “MFHKALWMRQWKQGKYIILLFWLTSLYQLPYKYYQEAQTQLKLSKMKFGDYTYYYSYYFQTSDGAVFFQGATLIALACLLIGWERNNQSNDFLFSMPFKRKDIFLTKWWLGVLNIITVQIICLISMYGIKNMSFHNEYQTFAPFYSYFLYATVVLIAIYTFALFIGTITGHIFSQSILTIILLFLPYGFGLLISGFIYSHTQWSVDAMGEIEYHTHEYLQHIGIISPLEYFSITYDYHPIETFDDYGNKLPSVSQDNPTERISVPSPWTLLTPFSYIITFLSIATFLYTRTPNEQSGKILLFPNLQKWFIICTVLCFGLLGGRILGGRDALLSYYVGFFLFATISYFIFTRLLKLKFAFAGK” was “failed”.
The value for “MGHHHHHHSHGQLVRGKVCEYSTDGAYIDIGGKAPAFLPKREAALHAVLDLEAHLPKDEELEFLVIRDQNEDGQVTVSLRA” was “failed”; that for “MVMIWYKALFSFNGRLNRQGFWIGFGINFIFLFIIANFGPKETAFSLTMVLPLLLASYSCVAVIIKRLHDRNRSARAILMMFIPLICYGVSLATQGTMAWLLGVMMPMFIGTMLLLEWGVFKSYPQANQYGEKGETFCFT” was “failed”.
For “MRFVLRILKALALLLVLLVITAAGWLFIRPPELLRVGDGYAAKIVCSNVFIAGREAEDVLHDDVQAPGNPLLRLLRVSVDRDNDRVTARFMGLFAPSYALYRGAFGCTSVPDGNFEAAAKAAPFDPPAKMQANDALWPEGEGTGNPADGKIAALLSDAGVAGPAMRAIVVVRNGRIVTEAYGPGFSAKTPLIGWSMTKTVNATILGRLMLGGKISFDDDNLLAQWKNDARAKIKVSDLLGMESGLAFNENYGDVADVTRMLYLDPDMVSLPAGAPMEAAPGQRFRYSSGTAVLLSRIWMDRVGNAQAAFSYPHDALFAPLGMTSAVFELDARGTFAGSSYLYATAHDWARFGQFLLQDGVWNGQRLLPEGFVGAMRTPTAASNGRYSQGQAWLSPGRGSSAGAGLPEDTFWLTGHDGQSVAIVPSANLVVVRLGLTPSRLGYQPQTLLKAILAALPQSGAQQQAGSQRQAQPQP”, the protein production entry is recorded as “failed”.
As for “MTIEPTQSPSSEPEVHSGEDFVHIDDPRPTGDISLSDSIVNVEKDELLDEAAEEEFRGSDSVFSGGDGGGADDDGGECSSEATKVELPEELAKSVVILTCESTADGGSCDVYLVGTAHVSKVILVLRFHLVLSLQRSCLGIELIFW”, the protein production entry is listed as “failed”.
The value for “MNFDRIFAWPLTSLEVFMNLALPSQYQFLPRFFRLATIAVLSNMMVPLAGLVDTAFLGHLEDIDYLAGVILGSILFDYLYRVLKFLRTSTTALTAQAVGEEDQAEVWVAGLRSALVALLLGLGILALQYPLQKFGFALLTGAPGVEQSGMDYFYGRIWGAPAVLLNFVILGWLLGQERNGLVLLISLVANFSNVGLDYLMINRWGWASAGAGWATASSQYLALALGLISIVVLAQGEKEKGEFKAAIAKLSDWGALRATIALKGNILIRFVILITTYSLFTNISSSFGTEVLAQNGLLLQIALLSQFTIQGVGMTSQTLTGNFKSKGEYQLLLPVLLTAIVTTLLMALGFAAVAIAFPETLFGLLTNHAEINDSVRQYTIWLIPLLESTALAFMLEAYFIGLKASQPLRNGVLFAFFGIYLPCLGLAIWQQSNNLLWFSLVSYMLGLVVYLGWQLLTRFSPQTLALESKQPS” was “failed”.
On to “MEATEKLREKPIKSLFISYLIPAVLGMVLMSVNIVIDAVMISRGVGANGLAGVNVAIPAFSIFFSISLWIGMGGATLYSIALGENKIERARSIFTQSMTVAVIIVGVLAAICLWRIEDLAYVFGANEVILPYALDYLHVLLTFGMIYVLENILSTFIRNDGNPNLAMAGLVVTAVLNIVFDYIFIFIFKWGVTGAASATILSAAIGFLVLLTHFFRKSSILKWTKFHFEWDTVKQIMIIGFPSFTAESTVAIVTIGFNIAFVQYAGEVGVASYAMVNSIHAMTLLLFFGVGAALQPIASFHYGANLAERLREGLQFAVKIAVVLGGVAIIVGLFFGKYIIGLFDVQSPELLELTLTGMSLFFIQYVFLGYNIVYGEYFQSVRQTTKSVLIIMSRGLLFIIPLLWIMPKLFGINGIWLVMPVAEVLTAIIVFTMNRMKHPVPLNMAGEKEAI”, for which the protein production entry is on record as “failed”.
For “MSNSSIDIGVPSLPPPFSIGTISIPTFSRQHLFLKIILHYNLVERYSRQLIVLGLGIQQRLNELKILIAGCGALGTAVAELLARLGVKELTIVDADVVDITNLHRVHLFDENDVGKPKAEVCAKKISLINSSIKINYIIDILDEENVERLISDKDYVFDALDSLYYKLLLNDAIVKLGKILIYGGINGEYGSAKLIDPSQTSCLSCFIDYSDQDEIGNSCDVIGTTPLIVELTATLQVNLMLNHLRGNPDYSLFYIDSRELKIERINIEKNSQCKTCVLNEYPFLYQKISKPKCGIFRTNMKIPELDEPKVFKNLGNVTLCYPSIGCFEKRGR” the value was “failed”; for “MTELRPGGPMYGPTPPLPLPTDRLQFAMPPMYESLDDERTHRKERLAGALRLFGRLGFEDGVSGHITARDPEYSDCFWVNPFGMPFKHVTVSDLVMVNASGQVIEGRYHVNQAAFTVHAQVHAARPDVVAVAHCHSVHGRALSALGDLLDPITQESCAFYEDHALYDAYTGVAVDAEEGRRIASALDTRKALVLRNHGLLTVGDSVDAAAWWFVSMERSCQVQLTARAAGRPVLIDHKQAVATREQLGGDLVAWINYQPLWQDISRSEPDLLS”, “failed”.
For “MIFVIFAKKSVRFPGKHSAMINGRRMIDIVASKLKNHGEVILYSKDPELNCDMCRVVRDTTDGIITDSVLSAMDRFGTFFAVAGDMPFITDRIIEKILSSYDGKPTFPVHADGLIEPLFGIYTDAIYDAMRDYIESGGESLIGFLSMADIDRVPIAEEEEKFFVSVNYPEDIKKYADLLTLEHHHHHH” the value was “failed”; for “MPLLTIGDQFPAYQLTALIGGDLSKVDAKQPGDYFTTITSDEHPGKWRVVFFWPKDFTFVCPTEIAAFSKLNDEFEDRDAQILGVSIDSEFAHFQWRAQHNDLKTLPFPMLSDIKRELSQAAGVLNADGVADRVTFIVDPNNEIQFVSATAGSVGRNVDEVLRVLDALQSDELCACNWRKGDPTLDAGELLKASA”, “not failed”; for “MEQFSFIACMPDIPGALHRAAEIITRYEGNINRIQYDRRIDLHTVFFEVTALPQAYEKIREELEKIGYLQTSLQPVAFVKFHVYLPNCPGALFDLLNYITSSKSSITFLDFDDRGQHPERLVVGLHIEDPNMIDALLNQLKSRYRLDILEYDTTGEKLDDTVFYLRLAQKLRSFIGSAEDDFLMRFLQDINHITQELSNLQKDPIEVFENILKVGDYLNRTSGDNFYADVQRVRIKDDIELFCFQPPCGGNIYLFDTSSERVMIDTGYGIYFQDIVNMLQYYGLGDLSRLKRIYITHADADHCGAAGCFPAPSYLNRETFLITRETSRAYGSSNQDCILEEVYTKIINLFSRFTPPSNTVLFPEVSLSDKIIEKRGVFPIIARFRIGDLKFEVLEGMGGHMHGEVFYFCPEEGLLFPEDAVINFKSLSPDRTAYNVLADYLMTSVNVDSKLAREERQSLLSLISEIDEQLARKNKKCLICCGHGSMSLLDNGKLIEYKGSERYVAGQKCISQENL”, “failed”.
As to “MSLEGIKQINFQSINVVENLEEAKEGIPTIIMFKTDTCPYCVEMQKELSYVSKEREGKFNIYYARLEEEKNIDLAYKYDANIVPTTVFLDKEGNKFYVHQGLMRKNNIETILNSLGVKEGHHHHHH”, the protein production result is “not failed”.
